pKd: −log10 of the molar value.
How the values were obtained:
[1] = biological target: extracellular region of human F158 FcγRIIIa with C-terminal 6×His-tag and GST-tag (human) (UniProt P08637); assay: SPR, receptor on chip
[2] = biological target: FcγRIIIa on human PBMCs expressing heterozygous V158/F158 FcγRIIIa (human) (UniProt P08637); assay: cell-based or functional assay
Chain of FcγRIIIa on human PBMCs expressing heterozygous V158/F158 FcγRIIIa (human) (P08637 17-254): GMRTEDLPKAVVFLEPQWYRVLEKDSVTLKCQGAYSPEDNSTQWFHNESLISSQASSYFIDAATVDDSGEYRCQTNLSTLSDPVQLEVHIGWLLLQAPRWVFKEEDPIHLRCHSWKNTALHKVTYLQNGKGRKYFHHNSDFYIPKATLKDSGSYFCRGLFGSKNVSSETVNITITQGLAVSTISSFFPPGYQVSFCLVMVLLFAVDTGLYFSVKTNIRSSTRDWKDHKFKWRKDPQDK

Chain of extracellular region of human F158 FcγRIIIa with C-terminal 6×His-tag and GST-tag (human) (P08637 17-208): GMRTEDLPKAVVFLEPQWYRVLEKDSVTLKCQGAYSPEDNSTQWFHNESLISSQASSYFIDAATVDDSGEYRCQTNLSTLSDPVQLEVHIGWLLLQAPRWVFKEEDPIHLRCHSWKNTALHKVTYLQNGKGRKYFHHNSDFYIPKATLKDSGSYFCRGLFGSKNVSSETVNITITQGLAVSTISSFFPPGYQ

Substance | pKd [1] | ADCC EC50 (ng/ml), DoHH-2 target cells, human PBMCs [2] [ng/mL] | ADCC log(EC50), DoHH-2 target cells, human PBMCs [2]
alemtuzumab V264I (antibody) | 6.26 | – | –
alemtuzumab S298A/E333A/K334A (antibody) | 6.81 | – | –
alemtuzumab S239D/I332E (antibody) | – | 3 | 0.49 log(ng/ml)
alemtuzumab I332E (antibody) | 7.14 | – | –
WT alemtuzumab (antibody) | 6.14 | – | –
alemtuzumab S298A (antibody) | 6.55 | – | –
alemtuzumab V264I/I332E (antibody) | 7.28 | 4 | 0.6 log(ng/ml)

Reference: patent US20060121032A1
